For data set [1], the system named is T1, C=COC(=O)/C=C/c1ccc(O)c(OC)c1.
T1 construct: secreted, over-expressed in low-background M. thermophila C1 host
The data set is described as follows: transesterification rate by HPLC, nonlinear Michaelis-Menten fit. It counts as biochemical, Thermothelomyces thermophilus. Conditions: acyl donor, 200 mM prenol, n-hexane:t-butanol:100 mM MOPS-NaOH pH 6.0 19.8:74.7:5.5 v/v/v microemulsion, 40 °C, 8 h, error = SE. The source says:
transesterification rate by HPLC, nonlinear Michaelis-Menten fit on FaeA2

Substrate in data set [2]: C=COC(=O)/C=C/c1ccc(O)c(OC)c1
Described as above. It counts as biochemical, Thermothelomyces thermophilus. Particulars: acyl donor, 200 mM prenol, n-hexane:t-butanol:100 mM MOPS-NaOH pH 6.0 53.4:43.4:3.2 v/v/v microemulsion, 40 °C, 8 h, error = SE. From the text:
transesterification rate by HPLC, nonlinear Michaelis-Menten fit on MtFae1a

The values below come from PMC5380708, “Optimized synthesis of novel prenyl ferulate performed by feruloyl esterases from Myceliophthora thermophila in microemulsions” (Applied Microbiology and Biotechnology, 2017).

As for FaeA2 (Thermothelomyces thermophilus), the Km in data set [1] was 46.5 (18.1) mM.

B1: MtFae1a (Thermothelomyces thermophilus ATCC 42464) (protein)
chain: ASLQEVTEFGDNPTNIQMYIYVPDQLDTNPPVIVALHPCGGSAQQWFSGTQLPSYADDNGFILIYPSTPHMSNCWDIQNPDTLTHGQGGDALGIVSMVNYTLDKHSGDSSRVYAMGFSSGGMMTNQLAGSYPDVFEAGAVYSGVAFGCAAGAESATPFSPNQTCAQGLQKTAQEWGDFVRNAYAGYTGRRPRMQIFHGLEDTLVRPQCAEEALKQWSNVLGVELTQEVSGVPSPGWTQKIYGDGTQLQGFFGQGIGHQSTVNEQQLLQWFGLI
notes: secreted from Pichia pastoris X33, glycosylated
Regarding B1, the Km in data set [2] was 81.2 (22.3) mM.
